Laboratory results published in patent publication US20030008857A1, “Photodynamic therapy (PDT) in combination with factors that bind cell surface apoptosis-inducing receptors” (priority 1999, published 2003).
Entries after “also recorded” stand apart in the source; their conditions may differ.

Assays:
Format in all cases: cell-based, human
Jurkat T cells = experiment: DNA fragmentation (sub-diploid DNA) by PI staining and flow cytometry
Experimental: (§1) The human Jurkat T cell line containing a neomycin resistance gene was obtained from Dr. Charles Rudin (University of Chicago). Cells were maintained in RPMI 1640 medium containing 10% heat-inactivated fetal calf serum (FCS) with penicillin (100 U/mL), streptomycin (100 μg/mL), 20 mM HEPES, 2 mM L-glutamine and G418 (1 μg/ml) purchased from Gibco BRL (Burlington, Ontario) in a CO2 incubator at 37° C. To elicit apoptosis with PDT, Jurkat cells were incubated with different amounts of liposomally formulated benzoporphyrin derivative monoacid ring A (BPD-MA, verteporfin, QLT PhotoTherapeutics, Inc., Vancouver, Canada) for one hour at 37° C. under light-protected conditions. The culture medium used for experiments was identical to that used for the passage of the cells except that FCS was used at a concentration of 5%. Experiments were conducted either in 6-well culture plates at 5×10^6 cells in a volume of 4 ml per well or in 96-well microtiter plates at 1×10^5 cells per well at 0.2 ml per well. Cells were irradiated with light of a wavelength of 690 nm delivered at 65-73 mW/sec from light emitting diodes (LED) to achieve a total light dose of 5 J/cm^2. Cells were returned to the incubator until required for analysis.
(§2) FasL and TRAIL as used were recombinant preparations. FasL was obtained from Upstate Biotechnology (Lake Placid NY) and corresponded to amino acids 103-281 of the soluble domain of human FasL. TRAIL was obtained from BIOMOL Research Laboratories (Plymouth Meeting, Pa.) and corresponded to residues 114-281 of the soluble domain of human TRAIL. FasL and TRAIL were usually added immediately following the treatment of cells with PDT, although in one series of experiments these factors were added at 1, 2 or 3 hours post-irradiation.
The proportion of cells containing sub-diploid levels of DNA 24 hours following treatment was determined using a propidium iodide (“PI”) fluorescence analysis procedure as described by Telford et al. (“Rapid Quantitation of Apoptosis in Pure and Heterogeneous Cell Populations Using Flow Cytometry” J. Immunol Methods 172:1-6 (1994)) or by Darzynkieicz et al. (“Features of Apoptotic Cells Measured by Flow Cytometry”, Cytometry, 13:795-808 (1992)).
Twenty four hours following PDT, 5×10^5 cells were washed twice with ice-cold PBS and then permeablized and fixed in 80% ethanol at 4° C. for one hour. The cells were again washed in ice-cold PBS and stained with PI (50 μg/mL) in PBS with simultaneous deoxyribose nuclease-free ribonuclease A (5 U/mL) treatment. These samples were analyzed by flow cytometry. The percentage of apoptotic cells was calculated using single color analysis for PI fluorescence with a Coulter XL flow cytometer (Coulter Electronics, Inc., Hialeah, Fla.). […] The degree of separation between the apoptotic population and the G0/G1 peak is readily apparent and the percentage of apoptotic cells is determined from the subsequent histogram.

IETDase (caspase 8) = experiment: Protease assay of cell extracts with Ac-IETD-AMC; details: FasL 7.5 ng/ml, 3 hours, Jurkat whole cell extracts
Experimental: as §1, with “Cells were irradiated with light of a wavelength of 690 nm delivered at 65-73 mW/sec from light emitting diodes (LED) to achieve a total light dose of 5 J/cm^2. Cells were returned to the incubator until required for analysis.” left out
(§3) These sequences are denoted by letter codes for each amino acid. […] The reaction mixture was incubated at 37° C. for 1 (DEVD.AMC) or 24 (VEID.AMC and IETH.AMC) h and fluorescence was measured using an excitation at 380 nm and an emission wavelength of 460 nm with a CytoFluor™ 2350 fluorescent measuring system (Perseptive Biosystems, Burlington, Ont).

[1] = test system: DEVDase (caspases 3 and 7); experiment: Protease assay of cell extracts with Ac-DEVD-AMC; details: FasL 7.5 ng/ml, 3 hours, Jurkat whole cell extracts
Experimental: as §1, with “Cells were irradiated with light of a wavelength of 690 nm delivered at 65-73 mW/sec from light emitting diodes (LED) to achieve a total light dose of 5 J/cm^2. Cells were returned to the incubator until required for analysis.” left out
as §3

[2] = test system: caspase-3, -6, -8 and -9 and PARP; experiment: Western immunoblot of caspase processing and PARP cleavage in Jurkat cells; details: 3 hours
Experimental: as §1
(§4) FasL and TRAIL as used were recombinant preparations. […]

cytochrome c = experiment: Cytochrome c in cytosolic extracts of Jurkat cells (immunoblot); details: 3 hours
Experimental: as §1, §4

VEIDase (caspase 6) = experiment: Protease assay of cell extracts with Ac-VEID-AMC; details: FasL 7.5 ng/ml, 3 hours, Jurkat whole cell extracts
Experimental: as §1, with “Cells were irradiated with light of a wavelength of 690 nm delivered at 65-73 mW/sec from light emitting diodes (LED) to achieve a total light dose of 5 J/cm^2. Cells were returned to the incubator until required for analysis.” left out
as §3

caspase-3, -6 and -8 = experiment: Caspase cleavage activity of cell extracts, statements covering DEVD, VEID and IETD peptides together
Experimental: as §1, §2
Whole cell lysates were prepared by washing 1×10^7 cells per sample twice with ice-cold PBS. Cells were disrupted with 1 mL of lysis buffer [1% Nonidet P-40 detergent (NP-40), 20 mM Tris-HCl, pH 8.0, 137 mM NaCl, 10% glycerol, 1 mM phenylmethylsulfonyl fluoride (PMSF) aprotinln (0.15 U/mL) and 1 mM sodium orthovanadate] for 20 minutes on ice. Lysates were centrifuged for 10 minutes at 15,800×g at 4° C.
These sequences are denoted by letter codes for each amino acid. To evaluate relative DEVDase (caspases 3 and 7), VEIDase (caspase 6) and IETDase (caspase 8) cleavage activity, Jurkat cell lysates were incubated with caspase-specific fluorescent substrates as described by Granville et al. (“Photodynamic therapy induces caspase-3 activation in HL-60 cells”, Cell Death Differ., 4, 623-629 (1997)). Briefly, lysates were incubated with reaction buffer (20 mM Tris pH 7.5, 137 mM NaCl, 1% NP-40, 10% glycerol) containing 100 μM of the caspase substrates Ac-DEVD-AMC (Calbiochem, Cambridge, Mass.), Ac-VEID-AMC (Calbiochem, Cambridge, Mass.), Ac-lETD-AMC (BIOMOL, Plymouth Meeting Pa.), and Ac-LEHD-AMC (Calbiochem, Cambridge, Mass.). The letter codes for the amino acid residues present within the inhibitor peptides are as following: D=aspartic acid; E=glutamic acid; H=histidine; I=isoleucine; T=threonine; V=valine. The reaction mixture was incubated at 37° C. for 1 (DEVD.AMC) or 24 (VEID.AMC and IETH.AMC) h and fluorescence was measured using an excitation at 380 nm and an emission wavelength of 460 nm with a CytoFluor™ 2350 fluorescent measuring system (Perseptive Biosystems, Burlington, Ont).

[3] = FasL 7.5 ng/ml or TRAIL 20 ng/ml

B1: FasL: recombinant, amino acids 103-281 of the soluble domain of human FasL (Upstate Biotechnology) (protein, UniProt P48023 103-281, looked up, fragment)
chain: QLFHLQKELAELRESTSQMHTASSLEKQIGHPSPPPEKKELRKVAHLTGKSNSRSMPLEWEDTYGIVLLSGVKYKKGGLVINETGLYFVYSKVYFRGQSCNNLPLSHKVYMRNSKYPQDLVMMEGKMMSYCTTGQMWARSSYLGAVFNLTSADHLYVNVSELSLVNFEESQTFFGLYKL
With B1 the “increase in proportion of cells with sub-diploid DNA versus light-treated control cells” value (Jurkat T cells; FasL 7.5 ng/ml added after PDT with verteporfin 2 ng/ml, 5 J/cm^2, 24 hours) was “twelve-fold”, the “increase in the number of cells displaying DNA fragmentation” value (Jurkat T cells; FasL 7.5 ng/ml by itself, 24 hours (FIG. 2)) was “seven-fold” and the “cells with induced DNA fragmentation” value (Jurkat T cells; FasL 200 ng/ml, within 24 hours) was “approximately 60%”. For the same molecule, the “proportion of cells with sub-diploid DNA compared with PDT alone” value (Jurkat T cells; TRAIL 20 ng/ml or FasL 7.5 ng/ml added after PDT with verteporfin 0.5 and 1 ng/ml) was “a greater proportion of cells contained a sub-diploid level of DNA”, the “DNA fragmentation induced by the factor without PDT across addition times” value (Jurkat T cells; added at 5 minutes, 1, 2 or 3 hours, FasL 7.5 ng/ml, TRAIL 20 ng/ml, individually or in combination) was “a comparable level of DNA fragmentation” and the “change of the combined effect with PDT on DNA fragmentation” value (Jurkat T cells; factor added at 3 hours post-PDT (verteporfin 2 ng/ml)) was “a modest decline”. The “capacity to accentuate PDT-mediated apoptosis (DNA fragmentation)” value (Jurkat T cells; factor added up to 3 hours after PDT (verteporfin 2 ng/ml), FasL 7.5 ng/ml, TRAIL 20 ng/ml) was “still demonstrable”, the “increase in IETDase-like activity versus control cells” value (IETDase (caspase 8)) was “one-and-half fold” and the “increase in DEVDase-like cleavage activity versus control cells” value [1] was “approximately two-fold”. For the same molecule, the “caspase processing and PARP degradation compared with PDT or the factor alone” value ([2]; FasL 7.5 ng/ml or TRAIL 20 ng/ml combined with verteporfin PDT) was “more extensive caspase processing and PARP degradation; also recorded: a higher degree of processing”, the “processing of caspases and PARP by the factor alone” value [2, 3] was “little or no processing; also recorded: little detectable processing” and the “cytochrome c in cytosolic extracts, factor alone” value (cytochrome c; [3]) was “background levels of cytochrome c”. The “cytochrome c in cytosolic extracts, factor with PDT” value (cytochrome c; PDT in combination with TRAIL 20 ng/ml or FasL 7.5 ng/ml) was “readily detectable amounts of cytochrome c”, the “increase in VEIDase-like cleavage activity versus control cells” value (VEIDase (caspase 6)) was “approximately two-fold” and the “caspase activity compared with the treatments given independently” value (caspase-3, -6 and -8; FIG. 7: factor combined with PDT (verteporfin 5 ng/ml, 5 J/cm^2), 3 hours) was “higher caspase activity”. The “protease activity on DEVD, VEID and IETD peptides, single treatment” value (caspase-3, -6 and -8; FIG. 7: verteporfin 5 ng/ml with light, FasL 7.5 ng/ml or TRAIL 20 ng/ml alone, 3 hours) was “modestly increased”, the “nature of the combined effect on caspase cleavage activity” value (caspase-3, -6 and -8; FasL 7.5 ng/ml plus PDT at verteporfin 5 ng/ml) was “greater than additive effect” and the “caspase cleavage activity levels relative to PDT or FasL applied independently” value (caspase-3, -6 and -8; FasL 7.5 ng/ml plus PDT at verteporfin 5 ng/ml, 3 hours) was 2-5 fold. For the same molecule, the “protease activity compared with FasL or TRAIL alone” value (caspase-3, -6 and -8; factor plus verteporfin in the absence of light irradiation) was “no different”.
